Blank lines part the entries; values can stand above or below the binder they belong to.
Target: T1, cyclo[RGDfK] cell adhesive peptide, surface-bound, light-activated from c[RGD(DMNPB)fK]
T1 chain: RGDFK
Assay: QCM-D; cells (3 × 10^5 cells/ml) injected over a gold-coated quartz crystal carrying a c[RGD(DMNPB)fK]-terminated PEG-thiol SAM, sedimented in stopped flow, peptide activated in situ by LED (360 nm, 1.35 mW cm^-2, 30 s); Δf1 = frequency drop within the first minute after irradiation; 37°C, PBS; also with 10 μM cytochalasin D or 10 μM anti-αVβ3 antibody
Details: remark: other sources report otherwise

Δf1: 0.966 Hz
B1: integrin αVβ3 on human umbilical vein endothelial cells (HUVEC), P06756 31-1048; P05106 27-788 (receptor)
chain 1: FNLDVDSPAEYSGPEGSYFGFAVDFFVPSASSRMFLLVGAPKANTTQPGIVEGGQVLKCDWSSTRRCQPIEFDATGNRDYAKDDPLEFKSHQWFGASVRSKQDKILACAPLYHWRTEMKQEREPVGTCFLQDGTKTVEYAPCRSQDIDADGQGFCQGGFSIDFTKADRVLLGGPGSFYWQGQLISDQVAEIVSKYDPNVYSIKYNNQLATRTAQAIFDDSYLGYSVAVGDFNGDGIDDFVSGVPRAARTLGMVYIYDGKNMSSLYNFTGEQMAAYFGFSVAATDINGDDYADVFIGAPLFMDRGSDGKLQEVGQVSVSLQRASGDFQTTKLNGFEVFARFGSAIAPLGDLDQDGFNDIAIAAPYGGEDKKGIVYIFNGRSTGLNAVPSQILEGQWAARSMPPSFGYSMKGATDIDKNGYPDLIVGAFGVDRAILYRARPVITVNAGLEVYPSILNQDNKTCSLPGTALKVSCFNVRFCLKADGKGVLPRKLNFQVELLLDKLKQKGAIRRALFLYSRSPSHSKNMTISRGGLMQCEELIAYLRDESEFRDKLTPITIFMEYRLDYRTAADTTGLQPILNQFTPANISRQAHILLDCGEDNVCKPKLEVSVDSDQKKIYIGDDNPLTLIVKAQNQGEGAYEAELIVSIPLQADFIGVVRNNEALARLSCAFKTENQTRQVVCDLGNPMKAGTQLLAGLRFSVHQQSEMDTSVKFDLQIQSSNLFDKVSPVVSHKVDLAVLAAVEIRGVSSPDHVFLPIPNWEHKENPETEEDVGPVVQHIYELRNNGPSSFSKAMLHLQWPYKYNNNTLLYILHYDIDGPMNCTSDMEINPLRIKISSLQTTEKNDTVAGQGERDHLITKRDLALSEGDIHTLGCGVAQCLKIVCQVGRLDRGKSAILYVKSLLWTETFMNKENQNHSYSLKSSASFNVIEFPYKNLPIEDITNSTLVTTNVTWGIQPAPMPVPVWVIILAVLAGLLLLAVLVFVMYRMGFFKRVRPPQEEQEREQLQPHENGEGNSET
chain 2: GPNICTTRGVSSCQQCLAVSPMCAWCSDEALPLGSPRCDLKENLLKDNCAPESIEFPVSEARVLEDRPLSDKGSGDSSQVTQVSPQRIALRLRPDDSKNFSIQVRQVEDYPVDIYYLMDLSYSMKDDLWSIQNLGTKLATQMRKLTSNLRIGFGAFVDKPVSPYMYISPPEALENPCYDMKTTCLPMFGYKHVLTLTDQVTRFNEEVKKQSVSRNRDAPEGGFDAIMQATVCDEKIGWRNDASHLLVFTTDAKTHIALDGRLAGIVQPNDGQCHVGSDNHYSASTTMDYPSLGLMTEKLSQKNINLIFAVTENVVNLYQNYSELIPGTTVGVLSMDSSNVLQLIVDAYGKIRSKVELEVRDLPEELSLSFNATCLNNEVIPGLKSCMGLKIGDTVSFSIEAKVRGCPQEKEKSFTIKPVGFKDSLIVQVTFDCDCACQAQAEPNSHRCNNGNGTFECGVCRCGPGWLGSQCECSEEDYRPSQQDECSPREGQPVCSQRGECLCGQCVCHSSDFGKITGKYCECDDFSCVRYKGEMCSGHGQCSCGDCLCDSDWTGYYCNCTTRTDTCMSSNGLLCSGRGKCECGSCVCIQPGSYGDTCEKCPTCPDACTFKKECVECKKFDRGALHDENTCNRYCRDEIESVKELKDTGKDAVNCTYKNEDDCVVRFQYYEDSSGKSILYVVEEPECPKGPDILVVLLSVMGAILLIGLAALLIWKLLITIHDRKEFAKFEEERARAKWDTANNPLYKEATSTFTNITYRGT
modifications: here or on the partner: cyclic peptide (cyclo); f = D-phenylalanine

Δf1: 0.913 Hz
B2: integrin αVβ3 on stable OV-MZ-6 cell transfectants overexpressing integrin αVβ3, P06756 31-1048; P05106 27-788 (receptor)
chain 1: B1 chain 1
chain 2: B1 chain 2
modifications: here or on the partner: cyclic peptide (cyclo); f = D-phenylalanine

Reference: paper PMC4379501
